The target of assay [1] is T1, Neuropilin 2A (NRP2A, NM_003872.2) on cells (human, UniProt O60462 23-931).
T1 construct: Used here for the Retrogenix HEK293 array and for the untagged NRP2v2 stably expressed on Expi293 cells; also called NRP2 variant 2; NRP2v2
Description: Retrogenix cell microarray on HEK293 cells, sequential staining, 20 ug/ml test protein, AF647 anti-human IgG Fc detection. As for the experimental part: The detection antibody was used at screening concentrations of 2, 5, and 20 μg/ml, as more fully described below.
Primary hits (duplicate spots) were identified by analyzing fluorescence intensity in the AlexaFluor 647 and ZsGreen1 emission channels using the ImageQuant system, following standard fluorescent methodology. […] Additionally all vectors encoding all hits, plus control vectors, were spotted in duplicate on new slides, and used to reverse transfect human HEK293 cells as before.

Assay [2] deals with T2, NRP1-His (R&D Systems #3870-N1) (human, UniProt O14786-2 22-644).
T2 construct: not shown: His tag
The assay can be described thus: SPR: NRP1 as analyte over immobilized Fc-HRS(2-60). On the technique in general: In SPR one partner is held on a chip, and binding of the other changes the refractive index at the surface.

Assay [3] addresses T3, Mouse PLXNA1-His (R&D Systems #4309-PA) (mouse, UniProt P70206 28-1242, limits assumed).
T3 construct: also called mouse Plexin A1; not shown: His tag
Description: SPR: mouse Plexin A1 as analyte over immobilized Fc-HRS(2-60).

Assay [4] has as its target T4, Rat NRP2-Fc-His (R&D Systems #567-N2) (rat, UniProt O35276 23-858, limits assumed).
T4 construct: not shown: Fc and His tag
T4 sequence (looked up): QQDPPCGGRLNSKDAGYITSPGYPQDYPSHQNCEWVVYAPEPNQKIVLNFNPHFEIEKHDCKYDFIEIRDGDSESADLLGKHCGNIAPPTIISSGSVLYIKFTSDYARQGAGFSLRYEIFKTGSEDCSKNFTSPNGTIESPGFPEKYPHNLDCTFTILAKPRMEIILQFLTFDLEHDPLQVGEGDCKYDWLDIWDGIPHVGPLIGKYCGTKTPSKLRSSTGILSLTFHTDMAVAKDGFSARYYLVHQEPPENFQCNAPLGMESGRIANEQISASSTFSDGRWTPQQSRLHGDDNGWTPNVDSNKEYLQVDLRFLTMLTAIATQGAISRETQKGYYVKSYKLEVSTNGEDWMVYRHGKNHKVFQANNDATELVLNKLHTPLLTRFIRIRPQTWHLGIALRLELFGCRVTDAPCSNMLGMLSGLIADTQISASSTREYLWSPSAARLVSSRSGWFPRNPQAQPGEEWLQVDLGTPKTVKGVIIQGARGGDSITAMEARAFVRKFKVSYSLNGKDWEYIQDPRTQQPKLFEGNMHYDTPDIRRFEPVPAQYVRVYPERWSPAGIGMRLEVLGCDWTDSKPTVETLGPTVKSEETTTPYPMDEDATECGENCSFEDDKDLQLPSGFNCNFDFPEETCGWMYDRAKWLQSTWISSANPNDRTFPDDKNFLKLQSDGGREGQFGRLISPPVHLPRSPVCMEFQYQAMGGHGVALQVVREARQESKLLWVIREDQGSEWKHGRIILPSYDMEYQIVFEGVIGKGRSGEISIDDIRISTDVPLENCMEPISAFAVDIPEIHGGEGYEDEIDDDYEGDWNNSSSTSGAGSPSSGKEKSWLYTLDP
Description: SPR: 50 nM rat NRP2 as analyte over immobilized Fc-HRS(2-60) [panel A].

In assay [5] the target is T5, NRP2a-GFP fusion protein on HEK293T cells (human, UniProt O60462 23-931).
T5 construct: Transiently expressed; cells fixed before staining; also called NRP2v2-GFP; cell-expressed NRP2a; not shown: GFP (Origene RG220706, NM_003872 ORF clone)
The assay can be described thus: immunofluorescence microscopy (IN Cell Analyzer) on fixed HEK293T cells expressing NRP2v2-GFP, GFP-bright gate; Fc-HRS(2-60) titrated in 2-fold steps and complexed with anti-Fc-PE [panel A]. As for the experimental part: (§1) HEK293T cells previously transfected with NRP2v2-GFP were passed the night before staining to 96 well Greiner Clear flat bottomed Microplates pre-coated with collagen coating solution. Supernatants were removed and cells were washed 1 time with binding buffer. Cells were then fixed with 50 μL of 3.7% methanol-free formaldehyde for 20 minutes at room temperature. Cells were washed 2× with binding buffer and then blocked with 100 μL of blocking buffer for 1 hour at room temperature. The cells were then washed one time with binding buffer and then incubated with 50 μL of staining complex overnight at 4 degrees Celsius. Cells were then washed 3 times with binding buffer, and then nuclei were counter stained with […] Hoechst diluted in DPBS for 10 minutes at room temperature. The Hoechst stain was replaced with 1×PBS and subsequently read on an IN Cell Analyzer 2200. 20× images were acquired and analyzed using In Cell Analyzer 1000 Workstation software. Segmentation of the cell mask was achieved using the GFP channel, and the average PE signal intensity was determined within this mask above a threshold intensity of 5000 (termed GFP Bright cells).

Assay [6] has as its target T6, NRP2-Fc (R&D Systems #2215-N2) (human, UniProt O60462 23-864, limits assumed).
T6 construct: Bought reagent used as NRP2 in the SPR experiments; also called human NRP2; Neuropilin 2; not shown: Fc
Description: SPR: NRP2 as analyte over immobilized WARS WHEP [panel D].

The target of assay [7] is T5, NRP2a-GFP fusion protein on HEK293T …. The assay can be described thus: competition assay, immunofluorescence microscopy on HEK293T cells expressing NRP2v2-GFP, GFP-bright gate; VEGF-C titrated, competitor 175 nM Fc-HRS(2-60)/anti-Fc-PE [panel A]. As for the experimental part: as §1
Assay [8] deals with T6, NRP2-Fc (R&D Systems #2215-N2). The assay can be described thus: SPR: NRP2 as analyte over immobilized GARS Fc-WHEP [panel B].
For assay [9] the target is unchanged. The assay can be described thus: SPR: NRP2 as analyte over immobilized MARS Fc-WHEP [panel C].

No end group written: not given here.

T3 sequence (P70206 28-1242 limits assumed): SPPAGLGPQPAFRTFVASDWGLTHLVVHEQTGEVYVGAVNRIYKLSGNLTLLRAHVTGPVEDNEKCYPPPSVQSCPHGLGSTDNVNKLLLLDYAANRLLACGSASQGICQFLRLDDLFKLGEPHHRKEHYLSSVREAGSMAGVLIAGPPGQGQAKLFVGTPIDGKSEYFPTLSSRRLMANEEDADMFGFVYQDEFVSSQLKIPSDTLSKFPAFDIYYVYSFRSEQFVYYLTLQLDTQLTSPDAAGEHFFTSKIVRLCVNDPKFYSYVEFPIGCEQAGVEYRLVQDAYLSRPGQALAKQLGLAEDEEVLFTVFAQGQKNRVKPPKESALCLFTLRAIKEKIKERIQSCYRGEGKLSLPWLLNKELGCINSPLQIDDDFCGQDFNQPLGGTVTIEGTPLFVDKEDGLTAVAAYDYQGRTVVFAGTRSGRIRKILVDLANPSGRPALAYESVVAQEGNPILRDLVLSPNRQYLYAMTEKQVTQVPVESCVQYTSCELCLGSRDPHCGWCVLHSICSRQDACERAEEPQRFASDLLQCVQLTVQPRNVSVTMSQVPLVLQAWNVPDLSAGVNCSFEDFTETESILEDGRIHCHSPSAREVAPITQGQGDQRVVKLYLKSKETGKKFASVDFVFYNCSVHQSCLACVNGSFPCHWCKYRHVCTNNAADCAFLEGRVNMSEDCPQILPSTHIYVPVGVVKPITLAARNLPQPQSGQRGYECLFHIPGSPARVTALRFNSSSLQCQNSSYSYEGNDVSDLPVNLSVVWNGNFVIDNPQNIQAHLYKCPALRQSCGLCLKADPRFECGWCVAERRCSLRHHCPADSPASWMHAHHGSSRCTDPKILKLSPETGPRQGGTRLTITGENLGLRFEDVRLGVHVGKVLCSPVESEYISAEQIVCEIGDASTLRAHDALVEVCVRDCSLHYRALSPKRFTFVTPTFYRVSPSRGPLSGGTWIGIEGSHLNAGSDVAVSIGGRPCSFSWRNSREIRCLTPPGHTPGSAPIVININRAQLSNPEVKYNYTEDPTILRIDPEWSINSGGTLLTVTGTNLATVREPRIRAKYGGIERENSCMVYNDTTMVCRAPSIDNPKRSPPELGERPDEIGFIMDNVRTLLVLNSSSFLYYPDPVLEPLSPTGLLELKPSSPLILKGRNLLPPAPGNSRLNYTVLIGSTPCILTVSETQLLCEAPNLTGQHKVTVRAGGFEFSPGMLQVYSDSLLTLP

B1: Fc-HRS(2-60) (Fc fusion)
chain: {human IgG Fc}-AERAALEELVKLQGERVRGLKQQKASAELIEEEVAKLLKLKAQLGPDESKQKFVLKTPK
modifications: also: linker to Fc not given here, biotinylated for flow assay (maleimide-PEG11-biotin, ~3.35 per molecule)
notes: Fc at the N-terminus, HRS residues 2-60 (WHEP domain) at the C-terminus; in the imaging assay pre-complexed with anti-Fc-PE; also called HRS-Fc fusion protein construct; ATYR1923; not shown: human IgG Fc region
For the molecule B1, the binding result is “binds” in assay [1]; “no binding (tested: 50 nM)” in assay [2]; “no binding (tested: 50 nM)” in assay [3]; “binds” in assay [4]; “binds” in assay [5].

B2: WARS WHEP (other, UniProt P23381 8-64, looked up)
chain: SLLELFNSIATQGELVRSLKAGNASKDEIDSAVKMLVSLKMSYKAAAGEDYKADCPP
notes: domain: WHEP domain; also called WHEP domain of WARS with a V5/His tag; not shown: V5/His tag
Turning to B2, the binding result in [6] is “no binding (tested: 20 nM)”.

B3: VEGF-C (ligand, human, UniProt P49767 103-227, looked up)
chain: TEETIKFAAAHYNTEILKSIDNEWRKTQCMPREVCIDVGKEFGVATNTFFKPPCVSVYRCGGCCNSEGLQCMNTSTSYLSKTLFEITVPLSQGPKPVTISFANHTSCRCMSKLDVYRQVHSIIRR
notes: also called Recombinant Human VEGF-C Protein
With B3, in assay [7], the “IC50 (read off the curve)” value was ~2 nM.

B4: GARS Fc-WHEP (Fc fusion, UniProt P41250 63-119, looked up)
chain: VLAPLRLAVRQQGDLVRKLKEDKAPQVDVDKAVAELKARKRVLEAKELALQPKDDIV
notes: domain: WHEP domain; not shown: Fc domain
As for B4, the binding result in assay [8] is on record as “no binding (tested: 20 nM)”.

B5: MARS Fc-WHEP (Fc fusion, UniProt P56192 841-897, looked up)
chain: QIQALMDEVTKQGNIVRELKAQKADKNEVAAEVAKLLDLKKQLAVAEGKPPEAPKGK
notes: as for B4
On to B5, for which the binding result in [9] is “no binding (tested: 20 nM)”.

Source of the values: patent US20180282402A1 (ATYR PHARMA, published 2018).
